Test results published in US20200332281 (published 2020).

B1: T_apt.5 (ssDNA)
DNA: AGCAGCACAGAGGTCAGATGGTGGATTTGGGTGGATTGGTATGAACTGACCCTATGCGTGCTACCGTGAA
B2: T_apt.2 (= T_beads_apt.5) (ssDNA)
DNA: AGCAGCACAGAGGTCAGATGGAGTCGGGTGGCTATTGGGTATGGACCGTGCCTATGCGTGCTACCGTGAA
B3: T_beads_re_apt.9 (ssDNA)
DNA: AGCAGCACAGAGGTCAGATGGGGGATGGTTAGGGTGGCTTAATATTGACCCCTATGCGTGCTACCGTGAA
B4: T_apt.6 (ssDNA)
DNA: AGCAGCACAGAGGTCAGATGGTTGGGTAGGGTTGGATAGGGGCAAGTAGACCTATGCGTGCTACCGTGAA
B5: T_apt.3 (= T_beads_apt.1, T_beads_re_apt.7) (ssDNA)
DNA: AGCAGCACAGAGGTCAGATGGATGGTGTAGGTTGGGAGAGGCTCAGTGCCCCTATGCGTGCTACCGTGAA
B6: T_apt.4 (= T_beads_re_apt.8) (ssDNA)
DNA: AGCAGCACAGAGGTCAGATGTTGGTGGGGTGGCTTTGGGTATTTACTTGGCCTATGCGTGCTACCGTGAA

target: T1, thrombin (UniProt P00734;P00734 P00734:328-363,P00734:364-622); assay: SPR; no specific response

Does B1 bind?
Result: no binding

Does B2 bind?
Result: no binding

Does B3 bind?
Result: no binding

target: T1, thrombin; assay: SPR; HBS-EP, 150 mM NaCl, pH 7.0

B4 was tested. Which Kd did it give?
The Kd was 55 nM.

Which Kd does the source give for B5 here?
Its Kd is 76 nM.

B6 was tested. Which Kd did it give?
The Kd was 81 nM.
